Tests used:
Format in all cases: physicochemical
[1] = Agitation-induced precipitation: vials shaken at 150 rotations per minute
[2] = Protein precipitation facilitated by trace levels of silicone (lubricated polypropylene syringe); details: adjusted to 0.02% (w/v) polysorbate 80
Source text: The silicone oil was introduced into the product upon use of standard lubricated polypropylene syringes equipped with siliconized rubber stoppers. […] The aggregation, deamidation and subsequent precipitation caused by denaturation at the air-liquid interface has become more discernable problematic with the drug being shipped to more clinical sites. Both causes of protein precipitation have been resolved by the addition of polysorbate 80 at a concentration of 0.02% (w/v).
An evaluation of the ability of 0.02% (w/v) polysorbate 80 to inhibit the protein precipitation facilitated by trace levels of silicone was conducted. […] The material was allowed to stand for several hours at room temperature.

[3] = Antibody aggregation with partially degraded polysorbate 80 (shaking and siliconized syringes); details: control samples without polysorbate 80, same conditions
Experimental: This material was diluted one-to-one with a 10 mg/mL solution of AN100226 in Formulation #2 resulting in a solution containing 0.01% (w/v) polysorbate 80 and 50% of the maximum level of degraded polysorbate 80.

[4] = 65 mg/mL liquid formulation: appearance and SEC; details: 65 mg/mL in 10 mM sodium phosphate, 140 mM sodium chloride, pH 6, about 0.06% polysorbate 80
[5] = Lyophilized formulation reconstituted to 100 mg/mL: reconstitution, appearance, SEC; details: immediately after lyophilization and after 2 wks at 40 deg
Experimental: The solution was filled at 5 mL per vial into 10 mL borosilicate glass vials and fitted with gray butyl rubber lyophilization stoppers. Lyophilization was done using a Virtis Gensis model lyophilizer. The product was frozen at a shelf temperature of −60° C. for 10 hours and then the shelf temperature was raised to −40°. Primary drying was performed at a shelf temperature of −10° C. and a chamber pressure of 100 mTorr for 20 hours. […] The vials were stoppered under vacuum.
The samples were analyzed immediately after lyophilization and after 2 wks of storage in the lyophilized form at 40 deg.

natalizumab
appearance of vials after shaking ([1]; 5 mg/mL, Lot No. AN100226-0003 with 0.02% (w/v) polysorbate 80 added, 150 rotations per minute, room temperature, within 3 hours): remained clear and free of particles | particle formation on shaking ([1]; vials completely filled, absence of polysorbate 80, shaken for extended periods of time): without additional particle formation being induced | particles after 0.2 μm filtration into 5-mL vial ([2]; after syringe exposure, after several days): substantially free of particles | precipitation by visual inspection ([2]; lubricated 60 mL polypropylene syringe, several hours at room temperature): no precipitation | precipitation of the antibody [3]: significant precipitation | appearance of solution [4]: slightly opalescent but without particulates | appearance of reconstituted solutions ([5]; 100 mg/mL reconstituted): clear and colorless with an absence of particulate material | reconstitution times ([5]; lyophilized from 5 mM histidine, 20 mg/mL sucrose, 0.02% polysorbate 80, pH 6, 1 mL WFI to 100 mg/mL): immediate
